Assay results from the supplement of paper PMC9112550, “Optimization of the antimicrobial peptide Bac7 by deep mutational scanning” (BMC Biology, 2022).

System: Escherichia coli TOP10
Test: shrunken log2 fold change of peptide-encoding DNA abundance (4.5 h post-induction vs induction); higher = less antimicrobial activity (less host growth inhibition)
Details: time post-induction: 4.5 h; library: site-saturation at positions 5, 18, 19, 20
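Note: peptides expressed intracellularly from a pBAD plasmid library in pooled LB shake-flask culture, induced with 0.3% L-arabinose, DNA abundance read by NGS, three biological replicates, DESeq2 with apeglm shrinkage.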

| Sequence | shrunken log2 fold change |
| --- | --- |
| RRIRNRPPRLPRPRPRPENGPRP | -0.0225 |
| RRIRNRPPRLPRPRPRPVGAPRP | 0.0749 |
| RRIRNRPPRLPRPRPRPIHMPRP | 0.0468 |
| RRIRNRPPRLPRPRPRPTEFPRP | -0.043 |
| RRIRERPPRLPRPRPRPHKYPRP | -0.902 |
| RRIRGRPPRLPRPRPRPDEEPRP | 1.76 |
| RRIRSRPPRLPRPRPRPREVPRP | -0.0353 |
| RRIRRRPPRLPRPRPRPDCNPRP | 0.311 |
| RRIRWRPPRLPRPRPRPHYRPRP | 0.0266 |
| RRIRRRPPRLPRPRPRPRFHPRP | 0.0555 |
| RRIRQRPPRLPRPRPRPEQPPRP | 0.393 |
| RRIRWRPPRLPRPRPRPTVTPRP | 0.0889 |
| RRIRWRPPRLPRPRPRPFGAPRP | 0.197 |
| RRIRMRPPRLPRPRPRPPLQPRP | 0.661 |
| RRIRDRPPRLPRPRPRPHAHPRP | 0.0605 |
| RRIRFRPPRLPRPRPRPQTRPRP | 0.149 |
| RRIRDRPPRLPRPRPRPKWYPRP | -0.0377 |
| RRIRHRPPRLPRPRPRPDRPPRP | -0.184 |
| RRIRWRPPRLPRPRPRPFAVPRP | 0.157 |
| RRIRMRPPRLPRPRPRPTRVPRP | 0.25 |
| RRIRERPPRLPRPRPRPACNPRP | -0.102 |
| RRIRIRPPRLPRPRPRPEGMPRP | -0.0787 |
| RRIRKRPPRLPRPRPRPKSIPRP | -0.0265 |
| RRIRQRPPRLPRPRPRPSEPPRP | 0.0286 |
| RRIRMRPPRLPRPRPRPTVEPRP | 3.68 |

| Sequence | shrunken log2 fold change |
| --- | --- |
| RRIRWRPPRLPRPRPRPRHGPRP | -0.192 |
| RRIRERPPRLPRPRPRPCDVPRP | -0.017 |
| RRIRMRPPRLPRPRPRPFWVPRP | -0.0112 |
| RRIRKRPPRLPRPRPRPLSMPRP | 0.0129 |
| RRIRDRPPRLPRPRPRPPIHPRP | -0.487 |
| RRIRKRPPRLPRPRPRPSGFPRP | 0.161 |
| RRIRYRPPRLPRPRPRPYIYPRP | -2.06 |
| RRIRHRPPRLPRPRPRPYYDPRP | -0.0623 |
| RRIRTRPPRLPRPRPRPLQRPRP | -0.063 |
| RRIRERPPRLPRPRPRPIACPRP | -0.23 |
| RRIRARPPRLPRPRPRPARYPRP | 0.12 |
| RRIRLRPPRLPRPRPRPEVWPRP | 0.276 |
| RRIRERPPRLPRPRPRPRWAPRP | 0.425 |
| RRIRERPPRLPRPRPRPRDFPRP | -0.134 |
| RRIRNRPPRLPRPRPRPTDNPRP | -0.353 |
| RRIRCRPPRLPRPRPRPWTAPRP | -0.212 |
| RRIRFRPPRLPRPRPRPWMGPRP | -0.592 |
| RRIRWRPPRLPRPRPRPYKFPRP | -0.22 |
| RRIRERPPRLPRPRPRPEVVPRP | 0.122 |
| RRIRTRPPRLPRPRPRPQTIPRP | -0.717 |
| RRIRMRPPRLPRPRPRPMSMPRP | 0.11 |
| RRIRWRPPRLPRPRPRPLGRPRP | 0.424 |
| RRIRFRPPRLPRPRPRPTNWPRP | 0.426 |
| RRIRTRPPRLPRPRPRPFVRPRP | -1.25 |
| RRIRDRPPRLPRPRPRPQHTPRP | -0.403 |

| Sequence | shrunken log2 fold change |
| --- | --- |
| RRIRKRPPRLPRPRPRPLYAPRP | 0.0609 |
| RRIRTRPPRLPRPRPRPLYLPRP | -0.558 |
| RRIRVRPPRLPRPRPRPKKQPRP | 0.216 |
| RRIRSRPPRLPRPRPRPFIFPRP | -0.343 |
| RRIRWRPPRLPRPRPRPSHDPRP | 0.023 |
| RRIRERPPRLPRPRPRPDHRPRP | -0.00204 |
| RRIRERPPRLPRPRPRPHKQPRP | -0.0572 |
| RRIRPRPPRLPRPRPRPGVKPRP | -0.0608 |
| RRIRARPPRLPRPRPRPRNAPRP | 0.485 |
| RRIRIRPPRLPRPRPRPLHLPRP | -1.08 |
| RRIRERPPRLPRPRPRPPMHPRP | -0.171 |
| RRIRHRPPRLPRPRPRPKNHPRP | -0.566 |
| RRIRGRPPRLPRPRPRPWSHPRP | -0.155 |
| RRIRWRPPRLPRPRPRPQHLPRP | -0.678 |
| RRIRGRPPRLPRPRPRPPMYPRP | 0.145 |
| RRIRNRPPRLPRPRPRPLYGPRP | -0.171 |
| RRIRMRPPRLPRPRPRPCYSPRP | -0.711 |
| RRIRDRPPRLPRPRPRPVFWPRP | 0.639 |
| RRIRVRPPRLPRPRPRPAAAPRP | 0.69 |
| RRIRIRPPRLPRPRPRPYWVPRP | 0.0603 |
| RRIRERPPRLPRPRPRPFAMPRP | -0.207 |
| RRIRQRPPRLPRPRPRPRSYPRP | -0.286 |
| RRIRTRPPRLPRPRPRPCKKPRP | -0.0502 |
| RRIRVRPPRLPRPRPRPMPWPRP | 0.056 |
| RRIRQRPPRLPRPRPRPTMYPRP | -0.352 |

| Sequence | shrunken log2 fold change |
| --- | --- |
| RRIRKRPPRLPRPRPRPNLYPRP | -0.111 |
| RRIRFRPPRLPRPRPRPMGYPRP | -0.226 |
| RRIRPRPPRLPRPRPRPKIYPRP | -0.000172 |
| RRIRLRPPRLPRPRPRPYMQPRP | -0.297 |
| RRIRLRPPRLPRPRPRPSIEPRP | -0.602 |
| RRIRSRPPRLPRPRPRPNYTPRP | -0.479 |
| RRIRDRPPRLPRPRPRPNPSPRP | 0.13 |
| RRIRWRPPRLPRPRPRPIYLPRP | -0.674 |
| RRIRVRPPRLPRPRPRPMFKPRP | -0.24 |
| RRIRGRPPRLPRPRPRPATSPRP | 0.914 |
| RRIRPRPPRLPRPRPRPHLRPRP | 0.151 |
| RRIRERPPRLPRPRPRPEQLPRP | 0.00434 |
| RRIRKRPPRLPRPRPRPRDDPRP | 0.365 |
| RRIRLRPPRLPRPRPRPFPGPRP | 0.143 |
| RRIRSRPPRLPRPRPRPSQAPRP | -0.0295 |
| RRIRSRPPRLPRPRPRPDLQPRP | -0.193 |
| RRIRCRPPRLPRPRPRPRKPPRP | 0.218 |
| RRIRARPPRLPRPRPRPKKFPRP | 0.138 |
| RRIRIRPPRLPRPRPRPLRLPRP | 0.281 |
| RRIRNRPPRLPRPRPRPVKQPRP | 0.00788 |
| RRIRYRPPRLPRPRPRPNSKPRP | -0.875 |
| RRIRGRPPRLPRPRPRPHLKPRP | 0.378 |
| RRIRKRPPRLPRPRPRPSADPRP | 0.027 |
| RRIRTRPPRLPRPRPRPMLMPRP | -0.248 |
| RRIRPRPPRLPRPRPRPLVMPRP | 0.0377 |

| Sequence | shrunken log2 fold change |
| --- | --- |
| RRIRKRPPRLPRPRPRPKPRPRP | 1.06 |
| RRIRHRPPRLPRPRPRPWLSPRP | -0.0373 |
| RRIRERPPRLPRPRPRPYHPPRP | -0.248 |
| RRIRHRPPRLPRPRPRPRPMPRP | -0.00237 |
| RRIRPRPPRLPRPRPRPSMSPRP | -0.409 |
| RRIRVRPPRLPRPRPRPLMKPRP | -0.269 |
| RRIRLRPPRLPRPRPRPWSIPRP | -0.0808 |
| RRIRSRPPRLPRPRPRPRTCPRP | 0.0915 |
| RRIRKRPPRLPRPRPRPTKHPRP | 0.195 |
| RRIRMRPPRLPRPRPRPHFNPRP | -0.0825 |
| RRIRNRPPRLPRPRPRPRFMPRP | -0.098 |
| RRIRGRPPRLPRPRPRPCLFPRP | 0.346 |
| RRIRVRPPRLPRPRPRPAVFPRP | 0.265 |
| RRIRARPPRLPRPRPRPCPVPRP | 0.0768 |
| RRIRDRPPRLPRPRPRPGAQPRP | 1.02 |
| RRIRKRPPRLPRPRPRPMPLPRP | -0.00591 |
| RRIRFRPPRLPRPRPRPEWDPRP | 0.168 |
| RRIRVRPPRLPRPRPRPIENPRP | -0.229 |
| RRIRRRPPRLPRPRPRPRHWPRP | 0.551 |
| RRIRDRPPRLPRPRPRPGMVPRP | 0.548 |
| RRIRYRPPRLPRPRPRPHFVPRP | -0.182 |
| RRIRLRPPRLPRPRPRPSNQPRP | -1.04 |
| RRIRERPPRLPRPRPRPLVQPRP | 0.0736 |
| RRIRKRPPRLPRPRPRPCHIPRP | -0.00879 |
| RRIRDRPPRLPRPRPRPICSPRP | 0.0206 |

| Sequence | shrunken log2 fold change |
| --- | --- |
| RRIRERPPRLPRPRPRPWNWPRP | -0.131 |
| RRIRLRPPRLPRPRPRPQSFPRP | -0.0139 |
| RRIRTRPPRLPRPRPRPLTVPRP | -0.267 |
| RRIRSRPPRLPRPRPRPYISPRP | -0.0172 |
| RRIRFRPPRLPRPRPRPDKYPRP | -1.65 |
| RRIRRRPPRLPRPRPRPDALPRP | 0.23 |
| RRIRARPPRLPRPRPRPPAAPRP | 1.12 |
| RRIRARPPRLPRPRPRPFDLPRP | 0.0229 |
| RRIRFRPPRLPRPRPRPERVPRP | 0.094 |
| RRIRTRPPRLPRPRPRPGCKPRP | -0.161 |
| RRIRHRPPRLPRPRPRPQTQPRP | -0.145 |
| RRIRPRPPRLPRPRPRPCKHPRP | -0.131 |
| RRIRHRPPRLPRPRPRPRAWPRP | 0.0709 |
| RRIRIRPPRLPRPRPRPQDAPRP | -0.449 |
| RRIRGRPPRLPRPRPRPKVYPRP | -0.0773 |
| RRIRNRPPRLPRPRPRPFSAPRP | -0.264 |
| RRIRMRPPRLPRPRPRPIKRPRP | 0.0532 |
| RRIRPRPPRLPRPRPRPSADPRP | -0.0256 |
| RRIRARPPRLPRPRPRPKQQPRP | 0.569 |
| RRIRTRPPRLPRPRPRPWPMPRP | 0.44 |
| RRIRGRPPRLPRPRPRPSHHPRP | -0.286 |
| RRIRKRPPRLPRPRPRPRMFPRP | 0.112 |
| RRIRPRPPRLPRPRPRPITHPRP | -0.117 |
| RRIRERPPRLPRPRPRPAQEPRP | 0.597 |
| RRIRYRPPRLPRPRPRPLKFPRP | -0.42 |
